Molecular target: T1, CasX 119 (in cells) (Planctomycetes)
T1 chain: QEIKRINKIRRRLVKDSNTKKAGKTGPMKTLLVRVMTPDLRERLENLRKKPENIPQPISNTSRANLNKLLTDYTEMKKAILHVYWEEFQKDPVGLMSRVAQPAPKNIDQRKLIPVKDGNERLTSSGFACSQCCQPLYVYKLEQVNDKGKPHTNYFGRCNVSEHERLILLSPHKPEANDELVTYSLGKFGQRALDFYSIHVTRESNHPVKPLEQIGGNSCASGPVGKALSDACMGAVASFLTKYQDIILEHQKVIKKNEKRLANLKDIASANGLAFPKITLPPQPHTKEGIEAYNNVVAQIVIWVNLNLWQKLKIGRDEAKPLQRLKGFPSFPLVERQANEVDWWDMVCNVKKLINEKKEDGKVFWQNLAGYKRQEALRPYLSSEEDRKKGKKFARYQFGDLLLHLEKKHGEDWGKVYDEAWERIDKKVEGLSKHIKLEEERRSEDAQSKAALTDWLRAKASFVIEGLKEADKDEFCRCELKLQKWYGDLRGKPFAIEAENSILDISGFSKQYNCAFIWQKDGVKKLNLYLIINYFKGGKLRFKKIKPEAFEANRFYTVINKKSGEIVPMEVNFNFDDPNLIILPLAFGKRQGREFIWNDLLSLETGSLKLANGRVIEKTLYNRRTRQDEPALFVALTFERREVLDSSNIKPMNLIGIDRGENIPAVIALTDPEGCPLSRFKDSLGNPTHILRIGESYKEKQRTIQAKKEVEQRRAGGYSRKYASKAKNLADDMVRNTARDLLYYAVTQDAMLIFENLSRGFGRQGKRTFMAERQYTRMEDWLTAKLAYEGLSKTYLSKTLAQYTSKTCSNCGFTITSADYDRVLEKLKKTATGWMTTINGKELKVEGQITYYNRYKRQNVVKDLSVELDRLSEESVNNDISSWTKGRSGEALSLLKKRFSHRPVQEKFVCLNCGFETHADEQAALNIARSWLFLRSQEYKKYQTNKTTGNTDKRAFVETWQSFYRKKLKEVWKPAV
Test: cell_activity; TTC PAM; SOD1-GFP reporter, GFP disruption
Conditions: tags: NLS
Excerpt: A SOD1-GFP reporter line was constructed by knocking in GFP at the endogenous human SOD1 locus, shown schematically in FIG. 19. A reporter (e.g., GFP reporter) coupled to a gRNA targeting sequence, complementary to the gRNA spacer, is integrated into a reporter cell line. Cells are transformed or transfected with a CasX protein and/or sgRNA variant, with the spacer motif of the sgRNA complementary to and targeting the gRNA target sequence of the reporter. The ability of the CasX:sgRNA ribonucleoprotein complex to cleave the target nucleic acid sequence is assayed by FACS. Cells that lose reporter expression indicate occurrence of CasX:sgRNA ribonucleoprotein complex-mediated cleavage and indel formation. The reporting system is based on reduced GFP fluorescence upon successful modifying (editing) of the SOD1 locus, detected by flow cytometry as shown in FIG. 20.
CasX 2 (SEQ ID NO:2) and guide 2 (SEQ ID NO:5) (labeled here as StX) and CasX 119 molecule and rRNA guide 64 (119.64) (labeled here as EvoXI) with SOD1 targeting spacers (2, with an encoding sequence of […] (SEQ ID NO: 310), and spacer 4, with an encoding sequence of […] (SEQ ID NO: 366)), were lipofected into SOD1-GFP reporter cells, selected for successful lipofection using puromycin, and later assayed for GFP disruption via FACS.

B1: sgRNA 64 SOD1 spacer 2 ; SOD1 exon 2 site (spacer 2) (ssRNA ; dsDNA)
RNA: GUACUGGCGCCUUUAUCUCAUUACUUUGAGAGCCAUCACCAGCGACUAUGUCGUAUGGGUAAAGCGCUUACGGACUUCGGUCCGUAAGAAGCAUCAAAGAUGUUCAUGAGUUUGGAGAU
DNA 1: ATGTTCATGAGTTTGGAGAT
DNA 2: ATCTCCAAACTCATGAACAT
B1 showed a binding signal of 35 fold vs CasX2 guide 2.

From US20220348925, “COMPOSITIONS AND METHODS FOR THE TARGETING OF SOD1” (Scribe Therapeutics Inc., published 2022)
